Results reported in patent US7951906B2, “Compounds capable of interacting with a cell-surface fibroblast growth factor receptor” (Enkam Pharmaceuticals A/S, priority 2002, dated 2011).

T1: FGFR1 Ig modules 2, 3 (Mus musculus, UniProt P16092)
T1 construct: amino acids 249-365 and 141-365 of FGFR (swissprot p16092), respectively; made in house; host or cells: Drosophila S2 cells
T1 sequence (P16092 141-365): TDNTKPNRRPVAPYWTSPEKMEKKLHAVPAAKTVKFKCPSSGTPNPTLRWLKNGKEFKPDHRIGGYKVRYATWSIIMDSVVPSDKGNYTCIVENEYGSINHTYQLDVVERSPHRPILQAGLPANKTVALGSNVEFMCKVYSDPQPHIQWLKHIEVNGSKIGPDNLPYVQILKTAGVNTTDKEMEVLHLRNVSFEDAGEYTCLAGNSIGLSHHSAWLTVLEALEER

T2: FGFR Ig module 2 (Mus musculus, UniProt P16092)
T2 sequence (P16092 140-251): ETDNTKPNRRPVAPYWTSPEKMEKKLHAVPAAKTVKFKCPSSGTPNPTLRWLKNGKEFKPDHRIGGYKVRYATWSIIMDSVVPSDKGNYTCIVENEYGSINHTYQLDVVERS


How the values were obtained:
[1] = tested on: polyclonal antibody raised against the intact FGL-peptide; experiment: Competitive ELISA of immunoreactivity with antibody raised against FGL-peptide; assay type: binding; conditions: rabbit serum
Source text: Antibody specifically recognising an epitope comprising SEQ ID NO: 1 (FGL-peptide) were raised in rabbits according the standard procedure (Gill B M, Barbosa J A, Dinh T Q, Garrod S, O'Connor D T: Chromogranin B: isolation from pheochromocytoma, N-terminal sequence, tissue distribution and secretory vesicle processing. Regul Peptides 33:223-35, 1991). Synthetic FGL-peptide was coupled to a carrier protein, KLH (Keyhole Limpets Hemocyanin). The peptide was mixed with Freunds incomplete adjuvant and the mixture was injected into rabbits. 208 μg peptide was used per immunisation (per rabbit).
Antibodies (serum) were tested for specificity by competitive ELISA using a series FGL-peptide truncated variants according to the protocol described in R. J. Jenny, T. L. Messier, L. A. Ouellette, and W. R. Church, Methods Enzymol. 222, 400 (1993). 100% immunoreactivity was ob-served only with the intact FGL-peptide consisting of SEQ ID NO: 1.

[2] = target: T3, rat FGFR1 (IIIC isoform) (Rattus norvegicus, UniProt Q04589); experiment: FGFR1 phosphorylation, Assay 2 (HEK293 cells, His-tagged FGFR1); assay type: cell-based; conditions: 20 min, 5 μM F3 module 2, 25 μM monomeric FG loop peptide
T3 construct: expressed in transfected cells; host or cells: HEK293 cells, transient, pcDNA3.1(+)
T3 sequence (Q04589 22-822): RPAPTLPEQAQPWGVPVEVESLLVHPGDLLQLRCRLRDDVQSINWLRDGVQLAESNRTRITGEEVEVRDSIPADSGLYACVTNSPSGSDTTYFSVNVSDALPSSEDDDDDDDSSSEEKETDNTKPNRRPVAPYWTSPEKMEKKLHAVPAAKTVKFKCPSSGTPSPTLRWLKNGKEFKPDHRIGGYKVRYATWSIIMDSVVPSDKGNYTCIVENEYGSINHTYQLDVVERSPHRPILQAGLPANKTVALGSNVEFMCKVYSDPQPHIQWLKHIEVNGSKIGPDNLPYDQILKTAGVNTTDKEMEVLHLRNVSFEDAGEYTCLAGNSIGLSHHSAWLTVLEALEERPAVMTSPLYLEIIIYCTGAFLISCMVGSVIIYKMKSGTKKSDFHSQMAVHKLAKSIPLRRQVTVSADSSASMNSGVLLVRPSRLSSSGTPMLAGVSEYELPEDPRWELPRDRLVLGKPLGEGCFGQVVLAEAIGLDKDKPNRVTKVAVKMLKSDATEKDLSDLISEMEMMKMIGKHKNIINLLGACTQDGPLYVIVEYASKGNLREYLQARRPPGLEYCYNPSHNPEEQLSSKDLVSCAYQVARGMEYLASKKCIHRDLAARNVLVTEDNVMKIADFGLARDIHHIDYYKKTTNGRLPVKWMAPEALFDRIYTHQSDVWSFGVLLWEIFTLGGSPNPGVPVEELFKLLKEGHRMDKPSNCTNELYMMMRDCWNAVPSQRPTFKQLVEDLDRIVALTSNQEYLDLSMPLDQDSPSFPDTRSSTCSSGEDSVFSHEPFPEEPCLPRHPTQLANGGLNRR
Description: Assay 2: The cDNA for the rat FGFR1 (IIIC isoform) was cloned by RT-PCR using RNA isolated from the rat PC12 cell line and inserted into a pcDNA3.1(+) plasmid (invitrogen), which allows expression of FGFR1 fused to the N-terminal of hexahistidine. ˜8×10^5 HEK293 cells were cultured for 24 h in 60 mm plates in full medium (DMEM 1965 supplemented with 10% FCS, 100 U/ml penicillin, 100 μg/ml streptomycin and […] Glutamax) and then transfected with 0.2 μg plasmid (with FGFR) using the LipofectAMIN PLUS™ reagent kit according to the manufacturer's instructions (Gibco BRL). Cells were grown for another 24 hrs in full medium, and then shifted to starvation media (DMEM 1965) overnight. FGFR transfected cells were stimulated for 20 min with the specified compounds, lysed in 8M urea, 1 mM orthovanadate (in PBS) and purified from the lysate via the His-tag as follows: The lysate was loaded on Ni^2+/NTA-sepharose (Qiagen), washed with lysis buffer plus 10 mM imidazole, and the FGFR was eluted with lysis buffer plus 250 mM imidazole. The purified FGFR was analysed by immunoblotting using anti-pentahis (Qiagen) or anti-phosphotyrosine (PY20, Transduction Laboratories) antibodies. The bands were visualised by chemilumiscense and the band density was measured using a GeneGnome apparatus (SynGene).

[3] = tested on: hippocampal neurons; experiment: Neurite outgrowth from hippocampal neurons; assay type: cell-based, rat; conditions: for neurite outgrowth in dose-response study: neurite length versus concentration
Description: Dissociated neurons from embryonic rat hippocampus (embryonic day 19), prepared as described (Skladchikova et al., 1999), were grown on Permanox plastic (Nunc) for 24 h at a density of 6000 cells/cm^2, at 37° C., 5% CO2 in Neurobasal medium containing 20 mM Hepes, 100 U/ml penicillin, 100 μg/ml streptomycin, 0.4% BSA supplemented with B27 (Gibco BRL) and the below specified compounds. After 24 h, cells were fixed with paraformaldehyde, stained with Coomassie Brilliant Blue R250 and the length of neurites was measured as described (Skladchikova et al, 1999).

[4] = target: T1, FGFR1 Ig modules 2, 3; experiment: SPR binding to immobilized FGFR Ig modules 2, 3
Source text: The NCAM F3 modules 1, 2 (without expression of exons a, AAG), and FGFR1 Ig modules 2, 3 were produced using rat NCAM cDNA and mouse FGFR1 (IIIC iso-form) cDNA. The F3 module 1 and the combined F3 modules 1, 2 consist of […] (SEQ ID NO:173) and amino acids 507-611 and 507-705 of NCAM (swissprot p13596), respectively. […] The FGFR Ig module 2 consists of […] […] The FGFR Ig module 3 and the combined Ig modules 2, 3 consist of […] (SEQ ID NO:174) and amino acids 249-365 and 141-365 of FGFR (swissprot p16092), respectively. […] All the proteins were purified by affinity chromatography using Ni2^+−NTA resin (Qiagen, USA) and/or ion exchange chromatography and gel filtration. ^15N-labelled F3 module 2 was produced as described (Thomsen et al., 1996). The NCAM Ig modules 1, 2 and 3 (RV and amino acids 20-308 of rat NCAM, swissprot p13596) was produced as described (Soroka et al., 2002).
The flow-rate was 5 μl/min. […] The FGFR Ig modules 2, 3 were immobilized on a sensor chip CM5 using amine coupling kit (Biosensor AB) as follows: 1) the two halves of the chip (designated Fc1 and Fc2) were activated by 20 μl activation solution; 2) the protein was immobilized on Fc1 using 12 μl 20 μg/ml protein in 10 mM sodium phosphate buffer pH 6.0; 3) Fc1 and Fc2 were blocked by 35 μl blocking solution. […] The resulting curve was used for analysis.

[5] = target: interaction between the NCAM F3 modules 1, 2 and the FGFR modules 2, 3 (Rattus norvegicus, UniProt P13596); experiment: biochemical
Sequence of interaction between the NCAM F3 modules 1, 2 and the FGFR modules 2, 3 (P13596 507-705): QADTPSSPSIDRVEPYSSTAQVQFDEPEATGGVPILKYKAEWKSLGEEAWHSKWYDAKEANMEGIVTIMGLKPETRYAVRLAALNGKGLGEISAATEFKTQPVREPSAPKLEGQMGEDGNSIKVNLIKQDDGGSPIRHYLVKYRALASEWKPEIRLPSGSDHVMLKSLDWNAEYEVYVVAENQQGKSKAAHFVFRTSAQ

[6] = target: T4, human FGFR1 (Homo sapiens, UniProt P11362); experiment: FGFR1 phosphorylation, Assay 1 (TREX-293 cells, StrepII-tagged FGFR1); assay type: cell-based; conditions: 20 min, 5 μM F3 module, 2.5 μM dendrimeric FG loop peptide
T4 construct: expressed in transfected cells; host or cells: TREX-293 cells (Invitrogen), Flp-In system
T4 sequence (P11362 22-822): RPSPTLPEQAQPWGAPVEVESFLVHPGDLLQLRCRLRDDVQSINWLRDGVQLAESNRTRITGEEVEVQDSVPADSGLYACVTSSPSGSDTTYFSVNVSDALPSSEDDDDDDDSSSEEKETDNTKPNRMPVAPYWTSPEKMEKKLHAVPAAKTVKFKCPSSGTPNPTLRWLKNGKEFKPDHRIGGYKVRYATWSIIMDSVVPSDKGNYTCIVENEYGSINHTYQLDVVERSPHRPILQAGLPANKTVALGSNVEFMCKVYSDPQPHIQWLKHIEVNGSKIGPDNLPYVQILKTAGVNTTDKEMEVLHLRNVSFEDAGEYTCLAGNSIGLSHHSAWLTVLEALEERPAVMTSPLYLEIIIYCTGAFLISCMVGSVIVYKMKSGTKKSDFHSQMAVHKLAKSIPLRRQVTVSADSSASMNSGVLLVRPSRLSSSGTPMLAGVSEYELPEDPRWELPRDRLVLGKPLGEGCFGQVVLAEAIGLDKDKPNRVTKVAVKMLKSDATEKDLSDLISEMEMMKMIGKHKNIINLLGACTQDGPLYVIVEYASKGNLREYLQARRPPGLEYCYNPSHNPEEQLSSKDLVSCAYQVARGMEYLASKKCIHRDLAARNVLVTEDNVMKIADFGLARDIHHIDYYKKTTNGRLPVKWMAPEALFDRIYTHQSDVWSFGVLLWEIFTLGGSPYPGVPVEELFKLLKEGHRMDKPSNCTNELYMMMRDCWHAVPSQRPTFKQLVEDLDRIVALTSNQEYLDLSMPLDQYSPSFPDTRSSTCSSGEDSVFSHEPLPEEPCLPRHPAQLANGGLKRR
Description: Assay 1: TREX-293 cells (Invitrogen) were stably transfected with human FGFR1 having a C-terminal StrepII-tag (IBA biotech), using the Flp-In system (Invitrogen). For the study of phosphorylation: ˜2×10^7 cells were starved overnight before stimulation for 20 min with the specified compounds. Cells were lysed in PBS with 1% NP-40 and phosphatase inhibitors cocktail set II (Calbiochem). The cleared cell lysates were incubated with 50 μl agarose-coupled anti-phosphotyrosine antibodies (4G10-AC, Upstate Biotechnologies) for 3 hrs at 4° C. Care was taken to calibrate the amount of cells employed, so that considerable increases in phosphorylated FGFR could be detected. The bound protein was washed, eluted using 150 mM phenyl phosphate (Sigma), precipitated by 12% trichloroacetic acid, washed in cold acetone and dissolved in SDS-PAGE sample buffer. Immunoblotting was performed using antibodies against the recombinant StrepII-tag (IBA biotech). For immunoprecipitation: ˜1×10^7 cells were transiently transfected with the 180 kDa NCAM isoform or a control vector. Cells were incubated for 24 h and then starved overnight. After lysis, FGFR was purified on a StrepTactin Minicolumn (IBA Biotech) according to the manufacturer's instructions, and analyzed by immunoblotting with polyclonal antibodies against human NCAM.

[7] = target: T2, FGFR Ig module 2; experiment: 15N-HSQC NMR chemical shift changes of NCAM F3 module 2 with FGFR Ig module 2; assay type: binding; conditions: 50 μM 15N-labeled F3 module 2, 1 mM FGFR Ig module 2
Source text: The NCAM F3 modules 1, 2 (without expression of exons a, AAG), and FGFR1 Ig modules 2, 3 were produced using rat NCAM cDNA and mouse FGFR1 (IIIC iso-form) cDNA. The F3 module 1 and the combined F3 modules 1, 2 consist of […] (SEQ ID NO:173) and amino acids 507-611 and 507-705 of NCAM (swissprot p13596), respectively. […] The FGFR Ig module 2 consists of […] […] The FGFR Ig module 3 and the combined Ig modules 2, 3 consist of […] (SEQ ID NO:174) and amino acids 249-365 and 141-365 of FGFR (swissprot p16092), respectively. […]
The following samples were used for the structure determination of the NCAM F3 module 2: 2 mM module in H2O or D2O and 1 mM ^15N-labelled module in H2O. […] The following NMR spectra were recorded and used for assignment: TOCSY in H2O or D2O (45 and 70 ms mixing time), NOESY in H2O or D2O (80 and 200 ms mixing time), DQFCOSY, ^15N-HSQC, ^15N-TOCSY-HSQC (70 ms mixing time), and ^15N-NOESY-HSQC (125 ms mixing time) (Bodenhausen and Ruben, 1980; Braunsweiler and Ernst, 1983; Kumar et al., 1981; Piantini et al., 1982; Zhang et al., 1994). […] All spectra were recorded at 298 K. The assignment of the ^1H and ^15N resonances were performed using the program PRONTO (Kjaer et al., 1994). […]

| Ki [5] | FGFR phosphorylation compared to the non-stimulated cells [6] | changes of the chemical shifts in the presence of the Ig module 2 [7] | Molecule | immunoreactivity [1] | increase of FGFR phosphorylation compared to control cells [2] | neurite outgrowth in dose-response study ([3]; hippocampal neurons) | binding to the immobilized FGFR modules [4] | inhibition of the neuritogenic effect induced by the F3 module 2 ([3]; 5 μM F3 module, ATP or AMP-PCP 0.4, 1.0 mM) | inhibition of the neuritogenic effect induced by the FG loop peptide ([3]; 50 μM peptide, ATP or AMP-PCP 0.4, 1.0 mM) | stimulation of neurite outgrowth / length of neurites ([3]; hippocampal neurons, 24 h, 5 μM F3 module 2) |
| --- | --- | --- | --- | --- | --- | --- | --- | --- | --- | --- |
| – | – | – | FG loop peptide: peptide corresponding to residues E^72-A^86 of the NCAM F3 module 2 (EVYVVAENQQGKSKA; NCAM Fn III, 2 [Swiss-Prot P13591] FGFR binding motif) | 100% | ~100% | induced neurite outgrowth with a bell-shaped curve | cannot be detected | – | – | – |
| 370 ± 50 µM | – | – | Nc1ncnc2c1ncn2[C@@H]1O[C@H](COP(=O)(O)OP(=O)(O)OP(=O)(O)O)[C@@H](O)[C@H]1O [ATP, adenosine triphosphate, reference compound] | – | – | – | – | substantially reduced | completely inhibited | – |
| – | substantially increase | No significant changes | NCAM F3 module 2: recombinant protein: AG and amino acids 612-705 of rat NCAM (swissprot p13596) (protein) AGPSAPKLEGQMGEDGNSIKVNLIKQDDGGSPIRHYLVKYRALASEWKPEIRLPSGSDHVMLKSLDWNAEYEVYVVAENQQGKSKAAHFVFRTSAQ | – | approx. 150% | induced neurite outgrowth with a bell-shaped curve | – | – | – | substantially increased |
